Assay results taken from the DeepSol protein solubility set.

test: soluble on expression in E. coli; label from the status in PepcDB or PDB records

Row | Sequence | soluble on expression in E. coli
1 | MSLTGREILEKLERREFTREVLKEALSINDRGFNEALFKLADEIRRKYVGDEVHIRAIIEFSNVCRKNCLYCGLRRDNKNLKRYRMTPEEIVERARLAVQFGAKTIVLQSGEDPYYMPDVISDIVKEIKKMGVAVTLSLGEWPREYYEKWKEAGADRYLLRHETANPVLHRKLRPDTSFENRLNCLLTLKELGYETGAGSMVGLPGQTIDDLVDDLLFLKEHDFDMVGIGPFIPHPDTPLANEKKGDFTLTLKMVALTRILLPDSNIPATTAMGTIVPGGREITLRCGANVIMPNWTPSPYRQLYQLYPGKICVFEKDTACIPCVMKMIELLGRKPGRDWGGRKRVFETVEGHHHHHH | soluble
2 | MSLTIAVYGLGKMGLPLAAVFADHGANVIGVDINERVVEMVNKGENHVKEEPGLDELVRRNVEEGRLRATTDGVWAAKSADVMIILVPTLADDRGNLKLEPVYDVANKIAKGLEKGDIVITEATMPPGTTESLIPILEKSGLKLGEFGLAHAPERTMTGTAIRDITGQYPKIVGASDERTLEAVIGLYETINRKGVIPMSSIKAAEAVKVFEGVYRDVNIALANELALWCEEHGLDALEIFNAANTQPYCHLHMPGAGVGGHCIPVYPWFVISLAKKTNPRLIKTAREINDSMPHHIVELTIRGLNEVGKPLKGSNVLVLGLTFRGGVREFTKSPAIDVIKELKEWGARVFTYDPLCNEEDAKRFGAEWKEDFKDVDAIVIVTDHKEFKDLNLEEIAKQVRNRVIVDGRNILDPRKAEKLGFVYLRVGRVEGHHHHHH | soluble
3 | MSLTIFDNYEVWFVIGSQHLYGPETLRQVTQHAEHVVNALNTEAKLPCKLVLKPLGTTPDEITAICRDANYDDRCAGLVVWLHTFSPAKMWINGLTMLNKPLLQFHTQFNAALPWDSIDMDFMNLNQTAHGGREFGFIGARMRQQHAVVTGHWQDKQAHERIGSWMRQAVSKQDTRHLKVCRFGDNMREVAVTDGDKVAAQIKFGFSVNTWAVGDLVQVVNSISDGDVNALVDEYESCYTMTPATQIHGKKRQNVLEAARIELGMKRFLEQGGFHAFTTTFEDLHGLKQLPGLAVQRLMQQGYGFAGEGDWKTAALLRIMKVMSTGLQGGTSFMEDYTYHFEKGNDLVLGSHMLEVCPSIAAEEKPILDVQHLGIGGKDDPARLIFNTQTGPAIVASLIDLGDRYRLLVNCIDTVKTPHSLPKLPVANALWKAQPDLPTASEAWILAGGAHHTVFSHALNLNDMRQFAEMHDIEITVIDNDTRLPAFKDALRWNEVYYGFRREGHHHHHH | soluble
4 | MSLTIKLITFDLDDTLWDTAPVIVSAEATLRQWLTEHAPNLGGVPVEHLWAIRERVLLAQPNLKHRISALRRQVLFHALEEAGYDHAQANQLADQSFEVFLHARHQLEIFPEVQPTLEALANHFALGVVTNGNADVRRLGLADYFKFALCAEDIGIAKPDARLFHEALQRGEATADTAVHIGDHPGDDIAGAQQAGLRAIWFNPNGKTWEAEHAPDAEIRSLNELPGLLARWHRGAEGHHHHHH | soluble
5 | MSLTITRIETIPMVAPLAREFRGSHYHMTHRATIVTRVHTDAGIIGEAYTGDEHETMFDIDRIIHEELAPTLIGQDAMAIERLWDSGYKVTFDILRDRRLGLVALAAVNTAIWDAVGKALKMPLWKLWGGYRNELPMIAIGGYYGEPLGSIADEMHNYQELGLAGVKFKVGGLSAAEDAARITAAREAAGDDFIICIDANQGYKPAVAVDLSRRIADLNIRWFEEPVEWHNDKRSMRDVRYQGSVPVCAGQTEFSASGCRDLMETGAIDVCNFDSSWSGGPTAWLRTAAIATSYDVQMGHHEEPQVSTHLLASQPHGTIAECFHPDRDPFWWNMITNRPKLNNGTLTLSDRPGLGWDLNWDYIDQYRVSKDEGHHHHHH | soluble
6 | MSLTKEPILELADMSDFEQLIRQHPEKIIILDFYATWCGPCKAIAPLYKELATTHKGIIFCKVDVDEAEDLCSKYDVKMMPTFIFTKNGDAIEALEGCVEDELRQKVLEHVSAQ | not soluble
7 | MSLTKIVIIGGVAGGASAAARARRLSEDAEIIMFERGPYVSFANCGLPYHIGGDIKERSNLLLQTPESFLARFNVDVRTMNEVLRINRAAKTITVRNLLDQSEYDENYDFLLLSPGAGPVIPPIPGIQNPLTHSLRNIPDMDKIIQTLQMNKPEHATVVGGGFIGLEMMEAFHHLGIKTTLIEMADQVMTPVDREMAGFAHAEIRAKGIDLRLGAALKSVEYRPAATLPSAESGESLEHKHVEGELDLLLSNGDTLTTDILIMAIGVRPETKLAAEAGLQLGELGGIWVNEQMQTSDPAIYAVGDAVEEKDFVTGKQTLVPLAGPANRQGRMAADNMLGRNESYQGTQGTAICKIFDLAVASTGKNEKQLKREGIAYEKVYVHTASHASYYPGAEVVSFKMLFDPQTGKIFGAQAVGKDGIDKRIDVMAVAQRAGMTVEQLQHLELTYAPPFGSAKDVINQAAFVATNLIKGDAKAIHFDEIDNLTDEQVLLDVRNPMELQNMGYLPGAINIPVDQLRQHMNELPKDKEIVIYCQVGLRGNVAYRQLVNNGFKARNLIGGYRTYKFAKAEGHHHHHH | soluble
8 | MSLTKMVIKGGTVYDPLNGIDGEVMDIFIKDGKIVENLSDGELKDAKILDVKGKVVMPGGVDSHTHVAGPKVNTGRVMCPEDHYKSPLKKTHNTHCGSGEIVPSTYAQGYKYSSMGYTTLFEAAVPPMLARHTHEEFKVMPIVDKAGYLLLGSNWFVMKYLKEGNVEKAAAYVAWALETTKTFGIKLVNPAGVESWAWGKNVHSLEEENIHFGISSGEVIRGLGAVNEMLGLPMSIHLHANNLGHPGNWEFTIDTMDVAKNIKPAVNKQGYDNGVKTKYSHEREQSLYMTHMQFHSFGGTSWKDFESKAEDISNYVNKSDHVVMDSGSVAFGKAICMTGDGPGLYDLAVMNGQKWANVDVELECGSGVVPFVYSMKNKVHSVQWAMGIELLLLTDPRKVIMTTDNPNAGPFTKYPQLITWLMSKKAREDTMKLCHKWAGERSGLAGNDKELSLYDLATVTRATPAKAIGMGHRKGHLSPGADADITVYDISPDYNSSDYAAIEKAFTTALFTIKDGEVITKDGRIIETPKGRTYYVDAKFNEEIQKEIIADVQDWFRRYYSIGFSNYPVPDLYLTKPTPLNINVREGHHHHHH | not soluble
9 | MSLTKNKFDNRADKLGESWDLLNKEGRKIGLKHRGEPFKPGEWHSLVNASIFNYQHEILMQQRSFNKIGRPGEWDFETGGSVLASEDSLTAIKREVKEEVGLELNFSEENFVETFRNWPVFDNWYVIKADLSIKDIRIQKSELEQAKFMPFDQAIKYLSSNYLPYLLKAYKKLFGGENEGHHHHHH | not soluble
10 | MSLTKSYAEEQKRSVSEKLLKEKKLSLILDLDGTIVFTNPELCIPLESEEEPITPEQGFYFEIPEQNAKVFIRFRDGIVTFMEKVSKLYDIHVVTLGQKEYAFAIVNAINKLRNIPFITGDLVTAEDCSSVIVCDEKDTNDGLIDREETNERRSVKRSIPTMGKEEMQVIVDDRIDVWDNKNVVQICEYVPSTNQVDTELVRVTEVLQNIYTKFYDEHIEDVKEILHLFRKKILENKNLYFNREGHHHHHH | soluble
11 | MSLTKTVLILTAAIDLDGGDWFSPCWERVTRSMALGKAGDIIHGCVPGAALAIREEKPIAAGRSAQNRRGSFREQEDGSYVLLAGRIFNRTDLLRRFDLKQGMDDADLYAAVSARMGEAAYRAIVGDYAALQWFPQRRSLRLARSGTSNMPLHVWRDGSRIVISSLPGPILASGVPARINDDRVADELLLFSPDGRTSFYAGMHRVPGGGEEVHDPSGFKARRLWSVKDAPEIRLRRDEDYVEALDVLFDEAVSATMDGSSAPGILLSGGFDSQTVASYAVKRLPAGRRLQAFTSVPMQGWTPPPRPGIFGDESAHVRALCAMYPQIEPHFIEAADFRYGERGHRQFLVGGWPVFNEMNAHWSHASLEQAADLGCDLMLTGDLGNSGFSYDGLTGYPTWLREGQWFRLLREIGKSDDPRPFWRKLISLAVMPHVPVRWKRKMDRHRPWRPSAFATWCGMREDFARESGVLDRAEAGGHDIDFYDIPSARTWRANVVDSLNDGAPEIYLGYQLLYGVPMRDPTAYLPLLEFCAGIPDEQYLRDGQTRWLARRLMQGRVPEMVRLENRIGAQSSDWPQRFARDREDLIAEMERMKADERLAKIFDFERLAANLREWDGSDRPESRSNFKINAAVGRAMVSARFVSHVEGRNVGEGHHHHHH | soluble
12 | MSLTLKTTEDLFQQSLHEYTITHAIEDKNVLRFHVDYYKPDGKSTPKPGETLAKRAVVDAILSKHDAATGGRRFNAILATASINDAIGYFGLFKTAQAEKQRVEPGYVPLNIAAVFSPPSDVSADVRQLQEDLPQEQEDNKKDSDAKKAALKAIIGDYNTRFGTNHRIEEFDAYYQDVQQRIKDQQFPNADLPDKGREKLDIVIVVDMLLTGFDSKYLNTLYVDKNLKYHGLIQAFSRTNRVLNDTKPYGNILDFRGQQKEVDAAIALFSGAKADKAREIWLVDTAPVVIDKLKEARGSLDSFLASQGLGGKPEDIANLKGTAAKVAFIKHFKDVQKLQTQLDQYTDLTAEQQAQVEAILPKDELRSFRGQYLQKAEELRADQKKAGEGHHHHHH | soluble
13 | MSLTLRIALFGAGRIGHVHAANIAANPDLELVVIADPFIEGAQRLAEANGAEAVASPDEVFARDDIDGIVIGSPTSTHVDLITRAVERGIPALCEKPIDLDIEMVRACKEKIGDGASKVMLGFNRRFDPSFAAINARVANQEIGNLEQLVIISRDPAPAPKDYIAGSGGIFRDMTIHDLDMARFFVPNIVEVTATGANVFSQEIAEFNDYDQVIVTLRGSKGELINIVNSRHCSYGYDQRLEAFGSKGMLAADNIRPTTVRKHNAESTEQADPIFNFFLERYDAAYKAELATFAQGIRDGQGFSPNFEDGVIALELANACLESAQTGRTVTLNPANEGHHHHHH | soluble
14 | MSLTMKDVALEAGVSVGTVSRVINKEKGIKEVTLRKVQRAIKTLDYIPDNYARGMKKNRTETIALIIPSIWHPFFSEFAYHVEKELLKYNYKLFICNADSDSQNEIEYIEMLKQNKVDGIIGITYSDIDKYILSDLPFVSIDRHFSENVCYVTSANYKGGQTAAEELVRRDNKHLAFIGSINMYENETILRSKGFREKAKELGVDVYNFEMKEPLINPEDQIRIFLQSHKEIDGIFTINDMMALRVISVMKELGKIAPDDYQIIGFDGLKTSVDQSYLVSTIVQDIGMMAKESVAMILKMIKREEILEKRIVIPTYFWGDKTTKKEGHHHHHH | soluble
15 | MSLTNSSKSFTKFMAASAVFTMGFLSVPTAGAEQTNQIANKPQAIQWHTNLTNERFTTIAHRGASGYAPEHTFQAYDKSHNELKASYIEIDLQRTKDGHLVAMHDETVNRTTNGHGKVEDYTLDELKQLDAGSWFNKKYPKYARASYKNAKVPTLDEILERYGPNANYYIETKSPDVYPGMEEQLLASLKKHHLLNNNKLKNGHVMIQSFSDESLKKIHRQNKHVPLVKLVDKGELQQFNDQRLKEIRSYAIGLGPDYTDLTEQNTHHLKDLGFIVHPYTVNEKADMLRLNKYGVDGVFTNFADKYKEVIKEGHHHHHH | soluble
16 | MSLTNVVAYIRVSTKSQGDSGLGLEAQRDYIQRAAQANDWNVVGEFVDVVSGKLALEDRPEGAKALTMCKQHNAQLLVAKLDRLSRSVLHIAQLMEQVDFKVATMPQADKFQLHLFAALAQQEREFIATRTKEALASLQRRADAGDAVAQQKVANRAEAQAKGRAVADITAANNIRMSKINTYQTNIEPHLKSCLHDKISEGHHHHHH | soluble
17 | MSLTPYNVARKRGELKYLLLTESQFDGGMMLRFVLRSETKLTQLRAALPWLRAQLPQLRVITANIQPVHMAIMEGETEIYLTDQQALAERFNDVPLWIRPQSFFQTNPTVASRLYATARDWVGQLPVRHMWDLFCGVGGFGLHCATPQMQLTGIEIAPEAIACAKQSAAELGLTRLHFQALDSTQFATAQGETPDLVLVNPPRRGIGKPLCDYLAQMAPRFIIYSSCNAQTMAQDIRHLPNYRIQRVQLFDMFPHTAHYEVLALLRRSEGHHHHHH | not soluble
